Target: PD-L1 CAR (2nd generation CAR, PDL1-CD28-CD3ζ) expressed on NK-92 cells (human) (UniProt P01732)
Assay: cell-based or functional assay

Sequence of UniProt P01732 (P01732 other isoform, or with tags, fused parts or gaps limits assumed): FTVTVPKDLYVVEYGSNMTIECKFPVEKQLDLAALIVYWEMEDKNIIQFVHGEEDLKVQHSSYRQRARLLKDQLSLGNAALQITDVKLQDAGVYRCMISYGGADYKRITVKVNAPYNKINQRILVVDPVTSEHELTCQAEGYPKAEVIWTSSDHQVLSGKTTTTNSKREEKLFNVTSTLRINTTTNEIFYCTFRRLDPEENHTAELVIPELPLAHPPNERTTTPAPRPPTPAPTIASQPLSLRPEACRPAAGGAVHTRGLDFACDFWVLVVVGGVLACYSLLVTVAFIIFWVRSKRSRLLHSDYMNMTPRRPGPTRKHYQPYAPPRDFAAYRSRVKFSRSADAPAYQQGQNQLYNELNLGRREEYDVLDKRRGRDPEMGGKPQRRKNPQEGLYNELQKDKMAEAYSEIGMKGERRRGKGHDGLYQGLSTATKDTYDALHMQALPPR

EC50 of degranulation of CAR NK-92 over increasing concentrations of plate-bound rhPD-1-Fc: 0.61 µg/mL
Substance: recombinant human PD-1-Fc fusion protein (rhPD-1-Fc) (from UniProt Q15116 25-167)

— patent US20240216509A1
